From US20210347891A1 come the findings set out here.

What is called Kd is the constant that tells how readily two partners part at equilibrium. By koff is commonly meant the first-order rate constant of dissociation. Read a low koff as a long-lived complex. The kon is the rate constant with which the complex forms. In general, EC50 (read off the curve) refers to the concentration at which the effect is half-maximal. High values mean lower potency in that assay, low ones higher potency in that assay.

Test [1] has as its target single chain FcRn-β2m-his (human scFcRn, Acro Biosystems Cat. No. FCM-H5286) (human) (UniProt P55899). In words: FACS of E. coli spheroplasts displaying the IgG, 10 nM scFcRn-FITC at pH 5.8.
Test [2] addresses dimeric human FcRn-β2m-GST (human) (UniProt P55899). Nature of the test: FACS of E. coli spheroplasts displaying the IgG, 50 nM dFcRn-GST-APC at pH 7.4.
Test [3] concerns the target single chain FcRn-β2m-his (human scFcRn, Acro Biosystems Cat. No. FCM-H5286) (human) (UniProt P55899). In words: SPR, antibody on CM5 chip, scFcRn 400-25 nM, pH 5.8 PBS, 1:1 Langmuir. In general terms: SPR reads the build-up and loss of mass on a sensor chip optically.
Test [4] shares this target. In words: SPR at pH 7.4 PBS, scFcRn on CM5 chip at high density (4000 RU), antibody 400-25 nM injected.
For test [5] the target is unchanged. In words: SPR, antibody on CM5 chip, FcRn/β2m injected, pH 5.8 (same values as Table 5).
Test [6] deals with C1q (UniProt P02745). In words: SPR, antibody on CM5 chip, C1q injected, pH 7.4 HBS-EP.
In test [7] the target is single chain FcRn-β2m-his (human scFcRn, Acro Biosystems Cat. No. FCM-H5286) (human) (UniProt P55899). In words: SPR at pH 7.4 PBS, scFcRn on CM5 chip at medium density (2000 RU), antibody 400-25 nM injected.
Test [8] concerns the target dimeric FcγRIIa-H131-GST (human) (human) (UniProt P12318). In words: SPR, antibody on CM5 chip, receptor injected, pH 7.4 HBS-EP.
Test [9] concerns the target dimeric FcγRIIb-GST (human) (human) (UniProt P31994). Described as above.
The target in test [10] is monomeric FcγRI-His (human) (human) (UniProt P12314). Described as above.
Test [11] has as its target dimeric FcγRIIIa-F158-GST (human) (human) (UniProt P08637). Described as above.
For test [12], the target named is dimeric FcγRIIa-R131-GST (human) (human) (UniProt P12318). The test is described as above.
In test [13] the target is single chain FcRn-β2m-his (human scFcRn, Acro Biosystems Cat. No. FCM-H5286) (human) (UniProt P55899). Nature of the test: SPR, antibody on CM5 chip, scFcRn 400-25 nM, pH 5.8 PBS.
For test [14] the target is unchanged. Nature of the test: SPR, antibody on CM5 chip, scFcRn, pH 5.8.
The target in test [15] is dimeric human FcRn-β2m-GST (human) (UniProt P55899). Nature of the test: ELISA at pH 7.4: antibody coated, serially diluted dFcRn (the concentration is that of dFcRn), anti-GST HRP. (In general: An ELISA detects its analyte on a solid surface through an enzyme-linked reagent.)
Test [16] has as its target dimeric FcγRIIb-GST (human) (human) (UniProt P31994). Nature of the test: ELISA: antibody coated, serially diluted GST-FcγRIIb (the concentration is that of the receptor), anti-GST HRP.
Test [17] addresses dimeric FcγRIIa-R131-GST (human) (human) (UniProt P12318). Nature of the test: ELISA: antibody coated, serially diluted GST-FcγRIIaR131 (the concentration is that of the receptor), anti-GST HRP.

Sequence of dimeric FcγRIIa-R131-GST (human) (human) (P12318 34-218 H167R limits assumed): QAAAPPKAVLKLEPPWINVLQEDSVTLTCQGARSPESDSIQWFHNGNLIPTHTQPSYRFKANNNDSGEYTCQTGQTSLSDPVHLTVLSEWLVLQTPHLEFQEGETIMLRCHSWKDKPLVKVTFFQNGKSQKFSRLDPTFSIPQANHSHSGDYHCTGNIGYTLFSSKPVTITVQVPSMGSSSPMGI
Sequence of dimeric human FcRn-β2m-GST (human) (P55899 other isoform, or with tags, fused parts or gaps limits assumed): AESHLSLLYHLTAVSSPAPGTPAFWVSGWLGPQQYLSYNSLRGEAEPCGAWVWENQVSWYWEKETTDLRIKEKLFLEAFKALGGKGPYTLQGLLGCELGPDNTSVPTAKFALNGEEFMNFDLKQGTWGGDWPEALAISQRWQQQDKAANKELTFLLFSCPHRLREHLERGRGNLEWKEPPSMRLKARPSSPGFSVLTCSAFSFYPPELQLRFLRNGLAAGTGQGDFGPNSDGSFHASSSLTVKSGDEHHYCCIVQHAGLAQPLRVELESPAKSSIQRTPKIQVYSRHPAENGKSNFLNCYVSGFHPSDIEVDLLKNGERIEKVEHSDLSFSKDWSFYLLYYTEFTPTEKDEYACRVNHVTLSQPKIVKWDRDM
Sequence of single chain FcRn-β2m-his (human scFcRn, Acro Biosystems Cat. No. FCM-H5286) (human) (P55899 other isoform, or with tags, fused parts or gaps): as the sequence (P55899 other isoform, or with tags, fused parts or gaps limits assumed) above
Sequence of monomeric FcγRI-His (human) (human) (P12314 16-288 limits assumed): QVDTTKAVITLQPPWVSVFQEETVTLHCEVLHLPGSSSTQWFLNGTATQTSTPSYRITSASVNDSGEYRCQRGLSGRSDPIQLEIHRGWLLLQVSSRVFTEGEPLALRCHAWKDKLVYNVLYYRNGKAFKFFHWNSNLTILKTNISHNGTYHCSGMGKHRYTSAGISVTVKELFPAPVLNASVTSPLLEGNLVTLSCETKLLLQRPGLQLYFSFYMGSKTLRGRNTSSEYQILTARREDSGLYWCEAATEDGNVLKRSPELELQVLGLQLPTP
Sequence of dimeric FcγRIIa-H131-GST (human) (human) (P12318 34-218 limits assumed): as the sequence (P12318 34-218 H167R limits assumed) above, with R134H counted along it
Sequence of dimeric FcγRIIb-GST (human) (human) (P31994 43-217 limits assumed): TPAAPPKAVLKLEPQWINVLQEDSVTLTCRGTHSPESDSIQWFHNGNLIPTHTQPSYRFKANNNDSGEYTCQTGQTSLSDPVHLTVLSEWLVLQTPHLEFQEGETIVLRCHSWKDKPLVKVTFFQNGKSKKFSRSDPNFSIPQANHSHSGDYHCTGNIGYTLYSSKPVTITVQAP
Sequence of C1q (P02745 23-245 limits assumed, chain 1 of 3): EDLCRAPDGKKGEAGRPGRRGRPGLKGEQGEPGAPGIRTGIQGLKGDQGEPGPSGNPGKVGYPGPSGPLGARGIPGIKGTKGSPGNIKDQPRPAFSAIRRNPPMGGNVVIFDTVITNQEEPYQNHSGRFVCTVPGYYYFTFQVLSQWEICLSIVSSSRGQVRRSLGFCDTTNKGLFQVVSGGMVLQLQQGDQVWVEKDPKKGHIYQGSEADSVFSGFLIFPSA
Sequence of C1q (P02746 28-253 limits assumed, chain 2 of 3, further chain): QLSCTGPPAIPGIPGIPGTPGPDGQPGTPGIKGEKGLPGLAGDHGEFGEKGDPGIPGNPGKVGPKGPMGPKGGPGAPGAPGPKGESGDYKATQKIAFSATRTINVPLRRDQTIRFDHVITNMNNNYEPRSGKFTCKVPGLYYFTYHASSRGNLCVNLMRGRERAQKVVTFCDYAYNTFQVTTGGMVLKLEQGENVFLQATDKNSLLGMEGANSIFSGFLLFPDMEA
Sequence of C1q (P02747 29-245 limits assumed, chain 3 of 3, further chain): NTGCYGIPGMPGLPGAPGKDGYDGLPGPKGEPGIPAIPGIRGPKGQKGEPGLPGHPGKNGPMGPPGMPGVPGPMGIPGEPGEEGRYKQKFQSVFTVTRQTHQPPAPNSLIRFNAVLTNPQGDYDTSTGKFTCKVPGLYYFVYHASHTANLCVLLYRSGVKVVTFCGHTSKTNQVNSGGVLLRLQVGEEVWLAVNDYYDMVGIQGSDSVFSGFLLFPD
Sequence of dimeric FcγRIIIa-F158-GST (human) (human) (P08637 17-208 limits assumed): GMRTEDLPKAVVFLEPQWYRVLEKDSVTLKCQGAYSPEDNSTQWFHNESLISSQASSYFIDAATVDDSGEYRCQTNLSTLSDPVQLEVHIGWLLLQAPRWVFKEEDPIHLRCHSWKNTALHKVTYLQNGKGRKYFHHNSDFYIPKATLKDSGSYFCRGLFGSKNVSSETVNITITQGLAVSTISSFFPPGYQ
Sequence of Herceptin-IgG4 (wild type IgG4 with the Fab of trastuzumab) (antibody) (Fc): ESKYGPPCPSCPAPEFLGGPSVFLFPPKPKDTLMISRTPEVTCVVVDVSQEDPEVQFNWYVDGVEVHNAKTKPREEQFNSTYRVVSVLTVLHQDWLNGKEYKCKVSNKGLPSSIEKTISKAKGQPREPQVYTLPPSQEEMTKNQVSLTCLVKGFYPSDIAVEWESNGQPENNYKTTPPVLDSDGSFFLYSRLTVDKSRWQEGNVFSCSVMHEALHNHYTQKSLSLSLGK

In the case of “EDHS (V264E, L309D, Q311H, and N434S), IgG displayed on E. coli spheroplasts (antibody)”, the M (mean fluorescence intensity) in test [1] amounted to 239; in test [2], 60.3.
With “Herceptin-YTE (M252Y/S254T/T256E) (antibody)”, the equilibrium dissociation constant (Kd) in [3] was found to be 0.023 µM; in [4] it was 4.29 µM; in [5], 0.023 µM; in test [6], 0.042 µM; in test [7], 4.73 µM; in test [8], 0.62 µM. Besides, the Kd in test [9] was found to be 6.24 µM; in test [10], 0.00029 µM; in [11], 4.41 µM; in test [12], 3.2 µM.
Turning to “Herceptin-IgG4 (wild type IgG4 with the Fab of trastuzumab) (antibody)”, the Kd in [13] was 2.46 µM.
Regarding “Herceptin-EDHS (V264E, L309D, Q311H, N434S) (antibody)”, in [3], the Kd was found to be 0.093 µM, the dissociation rate constant (koff) turned out to be 0.11 s⁻¹ and the on-rate constant (kon) is 1.2e+06 M⁻¹ s⁻¹. For the same substance, in [14], the fold enhanced affinity than Herceptin came out at 5.9 fold.
With “EDH (V264E, L309D, and Q311H), IgG displayed on E. coli spheroplasts (antibody)”, the values for the M (mean fluorescence intensity) in [1] and in test [2] were 135 and 20.4, respectively.
With “TEDHY (A231T, V264E, L309D, Q311H, and N434Y), IgG displayed on E. coli spheroplasts (antibody)”, the M (mean fluorescence intensity) in test [1] was 231; in test [2], 237.
For M428L/N434S (antibody) the same measures were 152 and 83.3.
Turning to “Herceptin-EDHY (V264E, L309D, Q311H, N434Y) (antibody)”, in test [3], the Kd turned out to be 0.028 µM, the off-rate (koff) came to 0.038 s⁻¹ and the kon is 1.4e+06 M⁻¹ s⁻¹. In addition, in [14], the fold enhanced affinity than Herceptin was found to be 19.6 fold.
Herceptin-LS (M428L/N434S) (antibody): the Kd in test [3] turned out to be 0.055 µM; in test [4], 0.0227 µM; in test [5] it was 0.055 µM; in test [6], 0.016 µM; in test [7], 0.0587 µM; in test [8] it was 0.41 µM. Besides, the dissociation constant Kd in [9] stood at 2.25 µM; in test [10] it was 0.00058 µM; in test [12], 1.21 µM. Further, in test [15], the EC50 (read off the curve) turned out to be 0.01 µM.
Take “Herceptin-DHS (L309D; Q311H; N434S) (antibody)”: the Kd in test [3] was found to be 0.111 µM; in [5] it was 0.11 µM; in test [6], 0.025 µM; in [8], 0.27 µM; in test [9], 2.91 µM; in [10], 0.00028 µM. Besides, the figures for the Kd in test [11] and in test [12] were 0.48 µM and 0.95 µM, respectively. Further, the figures for the concentration for a half-maximal effect (EC50 (read off the curve)) in [16] and in [17] were 0.004 µM and 0.007 µM, respectively.
In test [3], “Herceptin-EDH (V264E, L309D, Q311H) (antibody)” yielded a dissociation constant Kd of 0.487 µM, an off-rate (koff) of 0.23 s⁻¹ and a kon of 465000 M⁻¹ s⁻¹.
Consider “EDHY (V264E, L309D, Q311H, and N434Y), IgG displayed on E. coli spheroplasts (antibody)”, for which the M (mean fluorescence intensity) in test [1] amounted to 265; in test [2], 379.
